According to patent US20240199757A1 (UNIVERSITY OF CHICAGO, published 2024):

Assays:
[1] = target: T1, Full-length human NT5E (recombinant, in-house) (human, UniProt P21589 27-549); assay: DSF thermal shift, 1.5-fold molar excess of Fab, 1 mM ATP (NT5E alone 59° C. and 64° C.)
T1 construct: also called hNT5E; hNT5EWT
T1 sequence: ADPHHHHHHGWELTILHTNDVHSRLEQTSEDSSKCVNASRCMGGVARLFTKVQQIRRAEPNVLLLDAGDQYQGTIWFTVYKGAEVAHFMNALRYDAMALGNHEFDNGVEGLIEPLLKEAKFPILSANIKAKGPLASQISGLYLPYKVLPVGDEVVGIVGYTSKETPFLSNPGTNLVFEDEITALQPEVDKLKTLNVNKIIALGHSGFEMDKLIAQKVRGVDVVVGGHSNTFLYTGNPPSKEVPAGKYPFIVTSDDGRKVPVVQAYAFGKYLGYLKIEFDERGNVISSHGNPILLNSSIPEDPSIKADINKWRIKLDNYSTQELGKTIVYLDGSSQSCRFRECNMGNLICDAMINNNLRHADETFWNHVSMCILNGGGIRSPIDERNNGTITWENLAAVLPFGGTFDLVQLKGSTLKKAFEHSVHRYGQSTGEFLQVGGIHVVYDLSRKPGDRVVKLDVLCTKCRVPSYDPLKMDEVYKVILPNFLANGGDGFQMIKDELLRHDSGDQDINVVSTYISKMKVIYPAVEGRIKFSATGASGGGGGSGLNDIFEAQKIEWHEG
Protocol: With 1 mM ATP alone (red dashed line), the TM shifts from one transition at 49° C. to two transitions at TM 59° C. and 64° C. […] Thermal shift assays of substrate binding knock-out variants hNT5EDF (FIG. 2B) and hNT5EFF (FIG. 2C) show no change in thermal stability with the addition of ATP.
Thermal stability of samples was analyzed by differential scanning fluorimetry (DSF) using a real-time PCR instrument (Bio-Rad CFX384). Protein samples were mixed with 4× Sypro Orange at a final 4 μM concentration. For target/Fab complexes, 1.5-fold molar excess of Fab was used. All reactions were performed in triplicates in a 384-well plate. Thermal melting curves were monitored from 25° C. to 95° C. in steps of 0.5° C./30 s. Wavelengths of 490 and 575 nm were used for excitation and emission, respectively. The melting temperatures were inferred from the first derivative of the melting curves from the mean of triplicate runs using CFX software provided by the manufacturer.

[2] = target: T2, Full-length murine NT5E (recombinant) (murine, UniProt Q61503 29-552); assay: ELISA, biotinylated NT5E on neutravidin plate, 1 mM ATP; ELISA, recombinant mNT5E, with ATP (EC50ATP)
T2 construct: also called mNT5E
T2 sequence: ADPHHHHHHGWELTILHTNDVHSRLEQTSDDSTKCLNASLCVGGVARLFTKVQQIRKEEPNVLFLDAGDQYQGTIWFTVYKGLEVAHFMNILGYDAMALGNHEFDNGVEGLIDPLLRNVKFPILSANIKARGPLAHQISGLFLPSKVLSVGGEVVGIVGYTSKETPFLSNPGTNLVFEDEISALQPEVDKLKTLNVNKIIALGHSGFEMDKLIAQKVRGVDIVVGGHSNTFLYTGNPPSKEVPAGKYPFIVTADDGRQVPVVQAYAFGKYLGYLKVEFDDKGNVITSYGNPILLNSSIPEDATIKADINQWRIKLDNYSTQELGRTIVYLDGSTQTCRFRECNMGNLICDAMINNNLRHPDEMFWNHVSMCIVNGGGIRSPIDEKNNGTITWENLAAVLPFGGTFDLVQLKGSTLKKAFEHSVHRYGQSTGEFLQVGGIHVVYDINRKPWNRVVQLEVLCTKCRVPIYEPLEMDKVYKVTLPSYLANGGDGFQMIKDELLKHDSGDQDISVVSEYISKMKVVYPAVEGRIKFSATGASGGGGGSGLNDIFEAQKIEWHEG
Protocol: (B) Protein ELISA: Protein-based multipoint ELISA was performed to estimate the affinity of the generated Fabs and IgGs to NT5E. The binding of the Fabs and IgGs to the closed form of NT5E were determined in ELISA buffer (HBST) supplemented with 10 μM zinc chloride and 1 mM ATP while the binding of the same to open form of NT5E were determined in ELISA buffer (HBST) without any cofactors. A fixed concentration of the immobilized target (50 nM) on ELISA plate was incubated with 3-fold serial dilutions of the purified Fabs and IgGs starting from 3 μM and 1 μM respectively for 15 min. The plates were washed and were subsequently incubated with a secondary HRP-conjugated anti-protein L monoclonal antibody (#32420, ThermoFisher, 1:6000 dilution). As with phage ELISA, the plates were again washed, developed with TMB substrate and quenched with 1.0 M HCl, and absorbance (Abs450) was determined. To determine the affinity (EC50), the data were fitted with a non-linear, 4-parameter logistic curve in OriginLab.

B1: 1789 Fab (Fab, V domains shown)
VH: EVQLVESGGGLVQPGGSLRLSCAASGFNVSYSSIHWVRQAPGKGLEWVASISSSSGYTYYADSVKGRFTISADTSKNTAYLQMNSLRAEDTAVYYCARNYWGWYPFYYFAFDYWGQGTLVTV
VL: DIQMTQSPSSLSASVGDRVTITCRASQSVSSAVAWYQQKPGKAPKLLIYSASSLYSGVPSRFSGSRSGTDFTLTISSLQPEDFATYYCQQGWDYPITFGQGTKVEIKR
TM of NT5E in the presence of the Fab [1]: 66 ° C.
EC50 [2]: 132 nM
